± gives the standard deviation of the averaged measurements.
Tested on: Saccharomyces cerevisiae
Experiment: protein stability index of tFT-peptide fusion (C-terminal peptide) (PSI (0-1 scale)); higher = more stable (slower turnover)
Conditions: temperature: 30 C
Description: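 MPS profiling in S. cerevisiae of the yeast C-terminome library: the last 12 aa of each annotated ORF are fused to the C-terminus of a sfGFP-mCherry timer, after a GGGS linker. Cells are FACS-sorted into 8 mCherry/sfGFP bins and deep-sequenced. PSI runs from 0 (unstable) to 1 (stable); wild type and das1Δ backgrounds, two technical replicates each.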

[1] = genetic background: das1 deletion

Sequence: GLLVVFDRIDVK [MET7 C-terminal 12 aa]
- protein stability index [1]: 0.667 ± 0.015
- protein stability index (genetic background: wild type): 0.634 ± 0.013

Sequence: SILTHSTSPDSR [HYM1 C-terminal 12 aa]
- protein stability index [1]: 0.727 ± 0.033
- protein stability index (genetic background: wild type): 0.718 ± 0.076

Sequence: FVKDEIHKDILD [PEX21 C-terminal 12 aa]
- protein stability index [1]: 0.7 ± 0.017
- protein stability index (genetic background: wild type): 0.685 ± 0.011

Sequence: KAERCQYRLVTA [YCR025C C-terminal 12 aa]
- protein stability index [1]: 0.475 ± 0.031
- protein stability index (genetic background: wild type): 0.508 ± 0.012

Sequence: EEESTTSENLHF [RSM25 C-terminal 12 aa]
- protein stability index [1]: 0.699 ± 0.0097
- protein stability index (genetic background: wild type): 0.69 ± 0.025

Sequence: LGEYIEEMNIRS [YBP2 C-terminal 12 aa]
- protein stability index [1]: 0.7143 ± 0.0008
- protein stability index (genetic background: wild type): 0.684 ± 0.018

Sequence: EELRPDTLESEL [REC107 C-terminal 12 aa]
- protein stability index [1]: 0.683 ± 0.0093
- protein stability index (genetic background: wild type): 0.6742 ± 0.0014

Sequence: FPVTLWSKVILK [YHR073W-A C-terminal 12 aa]
- protein stability index [1]: 0.569 ± 0.0092
- protein stability index (genetic background: wild type): 0.559 ± 0.026

Sequence: KHKNILLFNNNT [YAL068W-A C-terminal 12 aa]
- protein stability index [1]: 0.699 ± 0.011
- protein stability index (genetic background: wild type): 0.686 ± 0.017

Sequence: SHPSFKQLLIQK [MLO1 C-terminal 12 aa]
- protein stability index [1]: 0.677 ± 0.031
- protein stability index (genetic background: wild type): 0.73 ± 0.025

Sequence: TALDYVSEKKKN [STE24 C-terminal 12 aa]
- protein stability index [1]: 0.679 ± 0.012
- protein stability index (genetic background: wild type): 0.7093 ± 0.0027

Sequence: KRKRRKVRARSK [RPL41A C-terminal 12 aa]
- protein stability index [1]: 0.7678 ± 0.006
- protein stability index (genetic background: wild type): 0.764 ± 0.066

Sequence: LLIPRRILTLDL [PDL32 C-terminal 12 aa]
- protein stability index [1]: 0.602 ± 0.001
- protein stability index (genetic background: wild type): 0.605 ± 0.036

Sequence: QGALDSLLNGDV [DSK2 C-terminal 12 aa]
- protein stability index [1]: 0.685 ± 0.03
- protein stability index (genetic background: wild type): 0.701 ± 0.019

Sequence: TVFASNSFGVYV [OST5 C-terminal 12 aa]
- protein stability index [1]: 0.669 ± 0.02
- protein stability index (genetic background: wild type): 0.709 ± 0.06

Sequence: PPVPEVPQEYTQ [TCB3 C-terminal 12 aa]
- protein stability index [1]: 0.722 ± 0.014
- protein stability index (genetic background: wild type): 0.709 ± 0.041

Sequence: EYPWEKPKTLKF [SAM1 C-terminal 12 aa]
- protein stability index [1]: 0.7167 ± 0.00082
- protein stability index (genetic background: wild type): 0.6917 ± 0.0068

Sequence: EANFWTAALEYE [THI21 C-terminal 12 aa]
- protein stability index [1]: 0.7334 ± 0.0016
- protein stability index (genetic background: wild type): 0.6857 ± 0.003

Sequence: DTFIPSTLQSVT [YNL089C C-terminal 12 aa]
- protein stability index [1]: 0.702 ± 0.026
- protein stability index (genetic background: wild type): 0.678 ± 0.015

Sequence: ECAPVPPAVRSY [SDH9 C-terminal 12 aa]
- protein stability index [1]: 0.683 ± 0.011
- protein stability index (genetic background: wild type): 0.6797 ± 0.0018

Sequence: LLPMAFGPSHLN [CDD1 C-terminal 12 aa]
- protein stability index [1]: 0.743 ± 0.032
- protein stability index (genetic background: wild type): 0.76 ± 0.045

Sequence: KTGKEVRSGKQL [ATX1 C-terminal 12 aa]
- protein stability index [1]: 0.689 ± 0.0069
- protein stability index (genetic background: wild type): 0.679 ± 0.022

Sequence: ELTSSDDCKDFI [YDR124W C-terminal 12 aa]
- protein stability index [1]: 0.7025 ± 0.0028
- protein stability index (genetic background: wild type): 0.652 ± 0.034

Sequence: DGPGLNNFGITL [BMT2 C-terminal 12 aa]
- protein stability index [1]: 0.6975 ± 0.00032
- protein stability index (genetic background: wild type): 0.699 ± 0.035

Sequence: LCHSSHIPETLK [MSN1 C-terminal 12 aa]
- protein stability index [1]: 0.719 ± 0.033
- protein stability index (genetic background: wild type): 0.663 ± 0.042

Sequence: GDVSNLPYLDEL [QCR2 C-terminal 12 aa]
- protein stability index [1]: 0.694 ± 0.013
- protein stability index (genetic background: wild type): 0.722 ± 0.039

Sequence: VDMTSIFDFMLN [POL1 C-terminal 12 aa]
- protein stability index [1]: 0.7408 ± 0.0055
- protein stability index (genetic background: wild type): 0.709 ± 0.025

Sequence: LFYVMTMTKFLF [PHM6 C-terminal 12 aa]
- protein stability index [1]: 0.5199 ± 0.0025
- protein stability index (genetic background: wild type): 0.364 ± 0.0018

Sequence: WLDCTTLPNYQG [KAP122 C-terminal 12 aa]
- protein stability index [1]: 0.7222 ± 0.0061
- protein stability index (genetic background: wild type): 0.707 ± 0.028

Sequence: FSTEYLGLICTY [YLR232W C-terminal 12 aa]
- protein stability index [1]: 0.49388 ± 0.0004
- protein stability index (genetic background: wild type): 0.5496 ± 0.0009

Sequence: VAPKPKTKQEKK [WRS1 C-terminal 12 aa]
- protein stability index [1]: 0.684 ± 0.0071
- protein stability index (genetic background: wild type): 0.658 ± 0.022

Sequence: GLTLIGRQSDSI [RAD7 C-terminal 12 aa]
- protein stability index [1]: 0.7025 ± 0.0011
- protein stability index (genetic background: wild type): 0.71 ± 0.074

Sequence: ALVGIFVLAFFN [HPF1 C-terminal 12 aa]
- protein stability index [1]: 0.29 ± 0.043
- protein stability index (genetic background: wild type): 0.251 ± 0.0084

Sequence: LRWKKRNGIASK [NOP16 C-terminal 12 aa]
- protein stability index [1]: 0.636 ± 0.017
- protein stability index (genetic background: wild type): 0.663 ± 0.028

Sequence: IAKEHDKIPKFL [INA22 C-terminal 12 aa]
- protein stability index [1]: 0.695 ± 0.027
- protein stability index (genetic background: wild type): 0.672 ± 0.06

Sequence: QYKNKLAKNVVL [ARB1 C-terminal 12 aa]
- protein stability index [1]: 0.675 ± 0.012
- protein stability index (genetic background: wild type): 0.6797 ± 0.0058

Sequence: KKQLLPSKTVDN [HED1 C-terminal 12 aa]
- protein stability index [1]: 0.688 ± 0.013
- protein stability index (genetic background: wild type): 0.66 ± 0.04

Sequence: SVLQQTSKEPFW [HOS4 C-terminal 12 aa]
- protein stability index [1]: 0.732 ± 0.016
- protein stability index (genetic background: wild type): 0.6975 ± 0.0026

Sequence: LDKELTDGCKQQ [PEX19 C-terminal 12 aa]
- protein stability index [1]: 0.7031 ± 0.005
- protein stability index (genetic background: wild type): 0.684 ± 0.012

Sequence: FEWEDDESDEIA [ATG7 C-terminal 12 aa]
- protein stability index [1]: 0.7397 ± 0.004
- protein stability index (genetic background: wild type): 0.706 ± 0.035

Sequence: DEDDGMIIGSLW [AEP2 C-terminal 12 aa]
- protein stability index [1]: 0.7004 ± 0.0057
- protein stability index (genetic background: wild type): 0.708 ± 0.013
